Values of other authors as cited in US12077586B2, “Bispecific antibodies for use in the treatment of hematological malignancies” (LAVA THERAPEUTICS N.V., priority 2018, dated 2024).

Assays:
[1] = target: T1, complete Vγ9Vδ2 TCR (Homo sapiens, UniProt A0JD36+Q99603, T7A); details: Mean Fluorescence Index class; cited from earlier work
T1 construct: host or cells: γδ T-cells expressing the complete Vγ9Vδ2 TCR

[2] = target: T2, Vγ9 chain (Homo sapiens, UniProt Q99603, T7A); details: Mean Fluorescence Index class; γδ T-cells expressing Vγ9 chain paired with non Vδ2 chain; cited from earlier work
T2 construct: host or cells: γδ T-cells expressing a Vγ9 chain paired with a non-Vδ2 chain

[3] = target: T3, Vδ2 chain (Homo sapiens, UniProt A0JD36); details: Mean Fluorescence Index class; γδ T-cells expressing Vδ2 chain paired with non Vγ9 chain; cited from earlier work
T3 construct: host or cells: γδ T-cells expressing a Vδ2 chain paired with a non-Vγ9 chain

[4] = system: γδ T-cells not expressing any of the Vγ9Vδ2 TCR chains; details: Mean Fluorescence Index class; cells not expressing any Vγ9Vδ2 TCR chain; cited from earlier work

T3 sequence (A0JD36 with tags, fused parts or gaps): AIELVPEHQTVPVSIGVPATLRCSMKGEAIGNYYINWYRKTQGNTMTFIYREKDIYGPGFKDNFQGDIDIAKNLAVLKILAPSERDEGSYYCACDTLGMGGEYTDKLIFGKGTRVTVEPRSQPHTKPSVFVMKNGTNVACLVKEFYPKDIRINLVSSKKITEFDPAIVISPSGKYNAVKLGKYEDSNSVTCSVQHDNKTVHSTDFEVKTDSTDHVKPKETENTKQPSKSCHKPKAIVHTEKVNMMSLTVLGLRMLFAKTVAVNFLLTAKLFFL
T3 sequence (P07766 23-207 partner): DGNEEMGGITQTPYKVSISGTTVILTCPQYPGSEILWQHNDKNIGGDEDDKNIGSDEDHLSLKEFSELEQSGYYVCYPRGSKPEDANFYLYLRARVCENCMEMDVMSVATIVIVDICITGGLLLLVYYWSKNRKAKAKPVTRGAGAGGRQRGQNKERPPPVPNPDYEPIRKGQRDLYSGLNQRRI
T3 sequence (P09693 23-182 partner): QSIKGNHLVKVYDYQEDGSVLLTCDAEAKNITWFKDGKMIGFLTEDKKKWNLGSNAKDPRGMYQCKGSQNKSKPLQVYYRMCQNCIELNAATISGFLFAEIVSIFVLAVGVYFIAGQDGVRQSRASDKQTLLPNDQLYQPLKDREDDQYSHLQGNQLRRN
T3 sequence (P04234 22-171 partner): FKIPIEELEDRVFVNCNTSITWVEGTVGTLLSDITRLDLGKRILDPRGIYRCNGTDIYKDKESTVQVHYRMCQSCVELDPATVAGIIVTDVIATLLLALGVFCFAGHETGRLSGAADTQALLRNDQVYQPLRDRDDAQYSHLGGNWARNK
T3 sequence (P20963 22-164 partner): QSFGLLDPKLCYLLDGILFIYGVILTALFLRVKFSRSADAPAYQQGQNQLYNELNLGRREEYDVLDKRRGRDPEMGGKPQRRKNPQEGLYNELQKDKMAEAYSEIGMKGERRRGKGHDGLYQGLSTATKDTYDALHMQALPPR
T2 sequence (Q99603 with tags, fused parts or gaps T7A limits assumed): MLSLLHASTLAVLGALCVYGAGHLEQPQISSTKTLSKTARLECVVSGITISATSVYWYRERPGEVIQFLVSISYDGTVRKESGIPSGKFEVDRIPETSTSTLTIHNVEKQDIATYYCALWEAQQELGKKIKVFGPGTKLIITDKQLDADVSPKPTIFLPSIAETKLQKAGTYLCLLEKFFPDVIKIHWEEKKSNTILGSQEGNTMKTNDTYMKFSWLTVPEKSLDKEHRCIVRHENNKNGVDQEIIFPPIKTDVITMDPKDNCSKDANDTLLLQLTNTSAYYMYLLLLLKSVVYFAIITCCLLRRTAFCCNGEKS
T2 sequence (P07766 23-207 partner): as the sequence (P07766 23-207 partner) above
T2 sequence (P09693 23-182 partner): as the sequence (P09693 23-182 partner) above
T2 sequence (P04234 22-171 partner): as the sequence (P04234 22-171 partner) above
T2 sequence (P20963 22-164 partner): as the sequence (P20963 22-164 partner) above
T1 sequence (Q99603 with tags, fused parts or gaps T7A limits assumed): as the sequence (Q99603 with tags, fused parts or gaps T7A limits assumed) above
T1 sequence (A0JD36 with tags, fused parts or gaps, stated change not applied): as the sequence (A0JD36 with tags, fused parts or gaps) above
T1 sequence (P07766 23-207 partner): as the sequence (P07766 23-207 partner) above
T1 sequence (P09693 23-182 partner): as the sequence (P09693 23-182 partner) above
T1 sequence (P04234 22-171 partner): as the sequence (P04234 22-171 partner) above
T1 sequence (P20963 22-164 partner): as the sequence (P20963 22-164 partner) above

Row | Molecule | Binding, Vγ9Vδ2+ [1] | Binding, Vγ9+ [2] | Binding, Vδ2+ [3] | Binding, Vγ9Vδ2− [4]
1 | 6H1: Vγ9Vδ2-TCR binding VHH, SEQ ID NO: 140 (protein, antibody sequence) VHH: EVQLVESGGGLVQAGGSLRLSCAATGRTFSEYAMGWFRQAPGKEREFAAAISWTGSKTYYADSVKGRFTISRDNAKNTVYLQMNSLKPEDTAVYYCAASSDCSGPGCHTEEYDYWGQGTQVTVSS | ++ (“++” indicates an MFI above 20) | ++ (“++” indicates an MFI above 20) | − (“−” indicates a Mean Fluorescence Index (MFI) below 1.5) | − (“−” indicates a Mean Fluorescence Index (MFI) below 1.5)
2 | 5G3: Vγ9Vδ2-TCR binding VHH, SEQ ID NO: 141 (protein, antibody sequence) VHH: EVQLVESGGGLVQAGGSLRLSCAASGRTFSSYAMGWFRQAPGKEREFVAAVSWSGGSTYYADSVKGRFTISRDNARNTVYLQMNSLNPEDTAVYYCAASQDCSGPGCYTNEYDSWGQGTQVTVSS | ++ (“++” indicates an MFI above 20) | ++ (“++” indicates an MFI above 20) | − (“−” indicates a Mean Fluorescence Index (MFI) below 1.5) | − (“−” indicates a Mean Fluorescence Index (MFI) below 1.5)
3 | 5C1: Vγ9Vδ2-TCR binding VHH, SEQ ID NO: 142 (protein, antibody sequence) VHH: EVQLVESGGGLVQPGGSLRLSCAASGSIFSNYAMAWFRQAPEKERDFLAAVSWSGGRTYYADSVKGRFTISRDNAKNTVNLQMNSLKPEDTAVYYCAASLSCSGPGCSLEEYDYWGQGTQVTVSS | ++ (“++” indicates an MFI above 20) | ++ (“++” indicates an MFI above 20) | +/− (“+/−” indicates an MFI of between 1.5 and 4.5) | − (“−” indicates a Mean Fluorescence Index (MFI) below 1.5)
4 | 6E3: Vγ9Vδ2-TCR binding VHH, SEQ ID NO: 144 (protein, antibody sequence) VHH: EVQLVESGGGLVQAGGSLRLSCAASGRPFSNYGMGWFRQAPGKKREFVAGISWSGGSTDYADSVKGRLTISRDNAKNTVYLQMNSLKPEDTAVYYCAAVFSGAETAYYPSDDYDYWGQGTQVTVSS | ++ (“++” indicates an MFI above 20) | − (“−” indicates a Mean Fluorescence Index (MFI) below 1.5) | ++ (“++” indicates an MFI above 20) | − (“−” indicates a Mean Fluorescence Index (MFI) below 1.5)
5 | 6C1: Vγ9Vδ2-TCR binding VHH, SEQ ID NO: 146 (protein, antibody sequence) VHH: EVQLVESGGGLVQAGGSLRLSCAASGRPFSNYGMGWFRQAPGKKRESVAGISWSGGSTDYADSVKGRFTISRDNAKNTVYLQMNSLKPEDTAVYYCAAVFSGAETAYYPSDDYDYWGQGTQVTVSS | ++ (“++” indicates an MFI above 20) | − (“−” indicates a Mean Fluorescence Index (MFI) below 1.5) | ++ (“++” indicates an MFI above 20) | − (“−” indicates a Mean Fluorescence Index (MFI) below 1.5)
6 | 6H3: Vγ9Vδ2-TCR binding VHH, SEQ ID NO: 147 (protein, antibody sequence) VHH: EVQLVESGGGLVQAGGSLRLSCAVSGRPFSNYGMGWFRQAPGKEREFVAGITWSGGSTHYADLVKGRFTISRDNAKNTVHLQMNSLKPEDTAVYYCAAVFSGAETAYYPSTEYDYWGQGTQVTVSS | ++ (“++” indicates an MFI above 20) | +/− (“+/−” indicates an MFI of between 1.5 and 4.5) | ++ (“++” indicates an MFI above 20) | − (“−” indicates a Mean Fluorescence Index (MFI) below 1.5)
7 | 6G3: Vγ9Vδ2-TCR binding VHH, SEQ ID NO: 148 (protein, antibody sequence) VHH: EVQLVESGGGLVQAGGSLRLSCAASGRPFNNYGMGWFRQAPGKEREFVAGISWSGGSTYYADSVKGRFTISRDNAKNTVYLQMNSLKPEDTAVYYCAAVFSGAETAQYPSYDYDYWGQGTQVTVSS | ++ (“++” indicates an MFI above 20) | − (“−” indicates a Mean Fluorescence Index (MFI) below 1.5) | ++ (“++” indicates an MFI above 20) | − (“−” indicates a Mean Fluorescence Index (MFI) below 1.5)
8 | 5F5: Vγ9Vδ2-TCR binding VHH, SEQ ID NO: 150 (protein, antibody sequence) VHH: EVQLVESGGGLVQAGGSLRLSCAASGRTFSNYAMGWFRQAPGKEREFVAAISWSGGSTYYADSVKGRFTISRDNAKNTVYLQMNSLKPEDTAVYYCAAMFSGSESQLVVVITNLYEYDYWGQGTQVTVSS | ++ (“++” indicates an MFI above 20) | − (“−” indicates a Mean Fluorescence Index (MFI) below 1.5) | ++ (“++” indicates an MFI above 20) | − (“−” indicates a Mean Fluorescence Index (MFI) below 1.5)
9 | 6A1: Vγ9Vδ2-TCR binding VHH, SEQ ID NO: 151 (protein, antibody sequence) VHH: EVQLVESGGGLVQAGGSLRLSCAASGRTFSNYAMGWFRQAPGKEREFVATISWSGGSTYYADSVKGRFTISRDNAKNTVYLQMNSLKPEDTAVYYCAAAFSGSDYANTKKEVEYDYWGQGTQVTVSS | ++ (“++” indicates an MFI above 20) | − (“−” indicates a Mean Fluorescence Index (MFI) below 1.5) | ++ (“++” indicates an MFI above 20) | − (“−” indicates a Mean Fluorescence Index (MFI) below 1.5)
10 | 6E4: Vγ9Vδ2-TCR binding VHH, SEQ ID NO: 152 (protein, antibody sequence) VHH: EVQLVESGGGLVQAGGSLRLSCAASGFTFDDYCIAWFRQAPGKEREPVSCITTSDGSTYYADSVKGRFTISSDNAKNTVYLQMNRLKPEDTAVYYCAAYFGYGCYGGAQDYRAMDYWGKGTLVTVSS | ++ (“++” indicates an MFI above 20) | − (“−” indicates a Mean Fluorescence Index (MFI) below 1.5) | ++ (“++” indicates an MFI above 20) | − (“−” indicates a Mean Fluorescence Index (MFI) below 1.5)
11 | 5C7: Vγ9Vδ2-TCR binding VHH, SEQ ID NO: 153 (protein, antibody sequence) VHH: EVQLVESGGGLVQAGDSLRLSCAASGRTFSRYTMGWFRQAPGKEREFVAAISWSGGRTNFAGSVKGRFTISRDNAKNTVYLQMNSLKPEDTAVYYCAADWLPVPGRESYDYWGQGTQVTVSS | +/− (“+/−” indicates an MFI of between 1.5 and 4.5) | − (“−” indicates a Mean Fluorescence Index (MFI) below 1.5) | +/− (“+/−” indicates an MFI of between 1.5 and 4.5) | − (“−” indicates a Mean Fluorescence Index (MFI) below 1.5)
12 | 5D7: Vγ9Vδ2-TCR binding VHH, SEQ ID NO: 154 (protein, antibody sequence) VHH: EVQLVESGGGLVQAGGSLRLSCIASGRTFSNYAMGWFRQAPGKEREFVAAISWSGGMTDHADSVKGRFTISRDNAKNTVYLQMNSLKPEDTAVYYCAAAFAGDIPYGSSWYGDPTTYDYWGQGTQVTVSS | ++ (“++” indicates an MFI above 20) | − (“−” indicates a Mean Fluorescence Index (MFI) below 1.5) | ++ (“++” indicates an MFI above 20) | − (“−” indicates a Mean Fluorescence Index (MFI) below 1.5)
13 | 5B11: Vγ9Vδ2-TCR binding VHH, SEQ ID NO: 155 (protein, antibody sequence) VHH: EVQLVESGGGLVQAGGSLRLSCAASGRTSSTFSMAWFRQAPRKEREFVAAINWSGGSTRYADSVSDRFAISRDNAKNTVYLQMNNLKPEDTAVYYCAARRGGIYYSTQNDYDYWGQGTQVTVSS | + (“+” indicates an MFI of between 4.6 and 20) | − (“−” indicates a Mean Fluorescence Index (MFI) below 1.5) | − (“−” indicates a Mean Fluorescence Index (MFI) below 1.5) | − (“−” indicates a Mean Fluorescence Index (MFI) below 1.5)
14 | 6C4: Vγ9Vδ2-TCR binding VHH, SEQ ID NO: 156 (protein, antibody sequence) VHH: EVQLVESGGGLVQAGGSLRLSCAVSVRTFSDYRMGWFRQAPGKEREFVSTISWSGGLTYYADSVKGRFTISRDNSKNTLYLQMNSLKPEDTAVYYCAAGGGYAGGTYYHPEEWGQGTQVTVSS | ++ (“++” indicates an MFI above 20) | ++ (“++” indicates an MFI above 20) | +/− (“+/−” indicates an MFI of between 1.5 and 4.5) | − (“−” indicates a Mean Fluorescence Index (MFI) below 1.5)
15 | 5E3: Vγ9Vδ2-TCR binding VHH, SEQ ID NO: 139 (protein, antibody sequence) VHH: EVQLVESGGGLVQAGGSLRLSCTASGRTFSSYAMGWFRQAPGKEREFVAAISWSGGTTYYADSVKGRFTISRDNAKNTVSLQMNSLKPEDTAVYFCAASLDCSGPGCHTAEYDYWGQGTQVTVSS | ++ (“++” indicates an MFI above 20) | ++ (“++” indicates an MFI above 20) | − (“−” indicates a Mean Fluorescence Index (MFI) below 1.5) | − (“−” indicates a Mean Fluorescence Index (MFI) below 1.5)
